From article PMC10819093 come the findings set out here.

Assay [1] has as its target HIV-1 gp41 protein (surface plasmon resonance) (HIV-1). Kind of assay: SPR; BIAcore 3000; HIV-1 proteins amine coupled to CM-5 chips (50 µg/mL in 20 mM sodium acetate); serially diluted antibody injected at 30 µL/minute for about 100 s in HBS (10 mM HEPES, 150 mM NaCl, 3 mM EDTA). In general terms: In SPR one partner is held on a chip, and binding of the other changes the refractive index at the surface.

In assay [2] the target is HIV-1 gp120 protein (surface plasmon resonance) (HIV-1). The assay is described as above.

With “trispecific antibody iMab + PRO140 + 10E8”, the Kd in assay [1] is 6.12 nM.

The substance “trispecific antibody iMab + PRO140 + PGDM1400” came in with a Kd in assay [2] of 0.46 nM. With “trispecific antibody iMab + PRO140 + PGT121”, the Kd in assay [2] is 0.59 nM.

By Kd is commonly meant a measure of binding affinity in units of concentration. A higher Kd goes with weaker binding.
